Test results taken from patent US20240254232A1 (SUNSHINE GUOJIAN PHARMACEUTICAL SHANGHAI, published 2024).

T1: LAG-3 extracellular segment recombinant protein with polyhistidine tag (LAG3-His) (UniProt P18627 23-450, limits assumed)
T1 construct: extracellular domain
T1 sequence (looked up): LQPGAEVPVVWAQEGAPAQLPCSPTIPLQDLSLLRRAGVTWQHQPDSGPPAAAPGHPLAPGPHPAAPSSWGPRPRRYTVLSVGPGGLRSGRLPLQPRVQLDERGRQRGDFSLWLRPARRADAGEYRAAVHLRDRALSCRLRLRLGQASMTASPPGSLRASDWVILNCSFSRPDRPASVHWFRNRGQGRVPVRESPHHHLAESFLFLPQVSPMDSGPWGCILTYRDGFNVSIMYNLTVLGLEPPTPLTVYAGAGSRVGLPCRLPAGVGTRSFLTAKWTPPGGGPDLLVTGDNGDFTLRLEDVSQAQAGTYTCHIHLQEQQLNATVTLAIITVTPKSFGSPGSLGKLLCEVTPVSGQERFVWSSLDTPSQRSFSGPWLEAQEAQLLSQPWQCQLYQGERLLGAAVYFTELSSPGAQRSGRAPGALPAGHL

B1: 609-302-134-IgG4, hexavalent trispecific antibody against PD-1, HER-2 and LAG-3 (antibody)
heavy: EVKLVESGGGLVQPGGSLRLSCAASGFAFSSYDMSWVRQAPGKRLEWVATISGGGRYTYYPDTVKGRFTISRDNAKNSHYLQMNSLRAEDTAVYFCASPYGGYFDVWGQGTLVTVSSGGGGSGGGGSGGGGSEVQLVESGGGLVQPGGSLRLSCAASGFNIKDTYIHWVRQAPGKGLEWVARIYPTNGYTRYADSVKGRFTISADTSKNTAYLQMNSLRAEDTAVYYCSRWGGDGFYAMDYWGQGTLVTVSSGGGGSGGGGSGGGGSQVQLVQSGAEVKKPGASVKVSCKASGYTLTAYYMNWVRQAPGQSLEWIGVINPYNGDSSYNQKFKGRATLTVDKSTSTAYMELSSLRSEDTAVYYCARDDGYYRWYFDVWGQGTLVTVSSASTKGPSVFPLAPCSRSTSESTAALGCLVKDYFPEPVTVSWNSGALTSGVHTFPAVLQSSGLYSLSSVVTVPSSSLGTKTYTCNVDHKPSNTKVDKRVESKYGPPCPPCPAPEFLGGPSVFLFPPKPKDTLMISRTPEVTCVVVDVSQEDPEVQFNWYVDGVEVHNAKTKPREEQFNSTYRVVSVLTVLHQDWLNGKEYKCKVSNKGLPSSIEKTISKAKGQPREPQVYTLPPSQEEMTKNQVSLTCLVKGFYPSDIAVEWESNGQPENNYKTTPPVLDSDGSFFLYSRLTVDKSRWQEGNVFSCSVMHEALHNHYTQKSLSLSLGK
light 1: not shown
light 2: DIQMTQSPSSLSASVGDRVTITCRASQDIGSRLNWLQQKPGKSIKRLIYATSSLESGVPSRFSGSRSGSDYTLTISSLQPEDFATYYCLQSGSSPPTFGQGTKVEIKRTVAAPSVFIFPPSDEQLKSGTASVVCLLNNFYPREAKVQWKVDNALQSGNSQESVTEQDSKDSTYSLSSTLTLSKADYEKHKVYACEVTHQGLSSPVTKSFNRGEC
B2: 609-302-(44CC)-134-IgG4, hexavalent trispecific antibody against PD-1, HER-2 and LAG-3 (antibody)
heavy: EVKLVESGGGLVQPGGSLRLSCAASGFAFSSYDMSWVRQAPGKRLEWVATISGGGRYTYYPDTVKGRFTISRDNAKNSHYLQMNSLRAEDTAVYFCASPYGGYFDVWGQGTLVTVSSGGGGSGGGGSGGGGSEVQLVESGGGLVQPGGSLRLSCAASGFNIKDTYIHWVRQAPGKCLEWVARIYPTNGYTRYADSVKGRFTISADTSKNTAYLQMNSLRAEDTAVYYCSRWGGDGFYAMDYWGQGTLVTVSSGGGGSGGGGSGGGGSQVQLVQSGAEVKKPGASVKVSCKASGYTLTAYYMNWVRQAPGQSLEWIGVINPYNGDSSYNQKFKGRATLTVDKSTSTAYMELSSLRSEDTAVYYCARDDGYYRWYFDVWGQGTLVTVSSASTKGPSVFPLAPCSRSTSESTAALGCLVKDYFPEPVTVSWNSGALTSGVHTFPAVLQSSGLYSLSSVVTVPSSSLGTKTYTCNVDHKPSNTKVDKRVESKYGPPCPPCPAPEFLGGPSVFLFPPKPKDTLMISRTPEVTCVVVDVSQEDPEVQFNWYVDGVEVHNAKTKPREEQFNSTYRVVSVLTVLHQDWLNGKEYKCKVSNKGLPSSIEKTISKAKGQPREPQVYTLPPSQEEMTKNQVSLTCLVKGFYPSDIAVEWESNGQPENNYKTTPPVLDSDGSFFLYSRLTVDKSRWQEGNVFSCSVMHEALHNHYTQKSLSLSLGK
light 1: not shown
light 2: B1 light 2
B3: 609-302-(105CC)-134-IgG4, hexavalent trispecific antibody against PD-1, HER-2 and LAG-3 (antibody)
heavy: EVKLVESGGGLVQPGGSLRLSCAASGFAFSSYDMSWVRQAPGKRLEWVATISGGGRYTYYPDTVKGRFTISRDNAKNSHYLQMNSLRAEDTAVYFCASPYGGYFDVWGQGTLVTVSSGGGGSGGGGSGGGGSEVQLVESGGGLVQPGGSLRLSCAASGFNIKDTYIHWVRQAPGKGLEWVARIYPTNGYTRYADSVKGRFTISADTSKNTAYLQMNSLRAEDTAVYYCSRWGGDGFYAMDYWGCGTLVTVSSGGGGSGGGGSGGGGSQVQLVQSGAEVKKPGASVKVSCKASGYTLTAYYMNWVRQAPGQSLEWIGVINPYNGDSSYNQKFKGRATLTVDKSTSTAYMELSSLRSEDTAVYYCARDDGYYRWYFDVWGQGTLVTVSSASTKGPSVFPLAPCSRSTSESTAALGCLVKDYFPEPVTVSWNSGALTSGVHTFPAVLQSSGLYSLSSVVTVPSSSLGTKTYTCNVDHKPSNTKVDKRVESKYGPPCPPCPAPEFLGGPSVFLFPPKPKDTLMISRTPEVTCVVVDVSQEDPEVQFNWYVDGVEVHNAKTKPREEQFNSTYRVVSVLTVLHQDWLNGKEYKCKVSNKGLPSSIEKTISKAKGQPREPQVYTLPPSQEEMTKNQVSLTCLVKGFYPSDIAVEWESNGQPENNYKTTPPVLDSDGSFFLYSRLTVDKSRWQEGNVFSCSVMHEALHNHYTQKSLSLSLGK
light 1: not shown
light 2: B1 light 2
B4: 134-IgG4 (134 Hu IgG4-C91S), humanized monoclonal antibody against human LAG-3 (antibody, V domains shown)
VH: QVQLVQSGAEVKKPGASVKVSCKASGYTLTAYYMNWVRQAPGQSLEWIGVINPYNGDSSYNQKFKGRATLTVDKSTSTAYMELSSLRSEDTAVYYCARDDGYYRWYFDVWGQGTLVTVSS
VL: DIQMTQSPSSLSASVGDRVTITCRASQDIGSRLNWLQQKPGKSIKRLIYATSSLESGVPSRFSGSRSGSDYTLTISSLQPEDFATYYCLQSGSSPPTFGQGTKVEIKR
notes: also called Anti-LAG-3 antibody

Tests used:
[1] = molecular target: T2, PD-1 extracellular segment recombinant protein with polyhistidine tag (PD1-His) (UniProt Q15116 25-170, limits assumed); experiment: ELISA, PD1-His coated at 20 ng/well, HRP anti-human Fc detection
T2 construct: extracellular domain
Protocol: (§1) The ELISA detection method used in the following embodiments is described as follows: the corresponding recombinant protein is coated on the microplate, and the microplate is closed with PBST containing 1% bovine serum albumin (PBST is a phosphate buffer containing 0.05% Tween-20). The antibody to be tested was sequentially diluted and then transferred to the above recombinant protein-coated microplates, incubated at room temperature for half an hour and then washed, appropriately diluted HRP (Horseradish Peroxidase)-labeled goat anti-human antibody (Fc specific, purchased from Sigma) was incubated at room temperature for half an hour and then washed, and 100 μl of TMB (3,3′,5,5′-Tetramethylbenzidine) was added to each well.
(§2) Hereby, HER2 extracellular segment recombinant protein (referred to as HER2-His, purchased from Sino Biological Inc.), PD-1 extracellular segment recombinant protein (referred to as PD1-His, purchased from Sino Biological Inc.), and LAG-3 extracellular segment recombinant protein (referred to as LAG3-His, purchased from ACROBiosystems) with polyhistidine tags were coated on microplates at concentrations of 20 ng/well, 20 ng/well, and 10 ng/well, respectively.

[2] = molecular target: T1, LAG-3 extracellular segment recombinant …; experiment: ELISA, LAG3-His coated at 10 ng/well, HRP anti-human Fc detection
Protocol: as §1, §2

[3] = molecular target: T3, HER2 extracellular segment recombinant protein with polyhistidine tag (HER2-His) (UniProt P04626 23-652, limits assumed); experiment: ELISA, HER2-His coated at 20 ng/well, HRP anti-human Fc detection
T3 construct: extracellular domain
Protocol: as §1, §2

T2 sequence (Q15116 25-170 limits assumed): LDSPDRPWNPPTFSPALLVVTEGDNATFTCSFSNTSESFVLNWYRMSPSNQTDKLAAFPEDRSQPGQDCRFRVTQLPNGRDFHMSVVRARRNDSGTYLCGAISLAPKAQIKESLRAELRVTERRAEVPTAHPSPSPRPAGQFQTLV

Row | EC50 [1] [nM] | EC50 [2] [nM] | EC50 [3] [nM] | Binder
1 | 0.125 | 0.26 | – | B1
2 | 0.0911 | 0.226 | 0.355 | B2
3 | 0.104 | 0.286 | 0.42 | B3
4 | – | 0.122 | – | B4
